For orientation: Kd means the concentration at which binding is half-saturated. As usually defined, the IC50 is the concentration that gives 50% inhibition.

The values below come from US7488588 (LICENTIA, dated 2009).

First the molecules themselves.
B1: human GFRα4, GPI-anchored isoform a (GFRα4a) (receptor)
chain: VGGNRCVDAAEACTADARCQRLRSEYVAQCLGRAAQGGCPRARCRRALRRFFARGPPALTHALLFCPCAGPACAERRRQTFVPSCAFSGPGPAPPSCLEPLNFCERSRVCRPRLLAFQVSCTPAPSAPDGCLLDQGARCLRAYAGLVGTAVTPNYVDNVSARVAPWCDCGASGNRREDCEAFRGLFTRNRCLDGAIQAFASGWPPVLLDQLNPQGDPEHSLLQVSSTG
modifications: GPI anchor (released by PI-PLC)
notes: Expressed from full-length GFRA4a cDNA (pCR3.1) in mouse Neuro-2a cells (endogenous Ret), in CHO cells (no Ret) or microinjected into mouse SCG neurons; also called hGFRα4; GFRA4a
B2: human persephin (PSPN) (ligand, UniProt O60542 61-156, looked up)
chain: ALSGPCQLWSLTLSVAELGLGYASEEKVIFRYCAGSCPRGARTQHGLALARLQGQGRAHGGPCCRPTRYTDVAFLDDRHRWQRLPQLSAAACGCGG
notes: Cross-linking gels show monomer (approx. 14-16 kDa) and dimer (32 kDa) bands; also called unlabeled PSPN

Assay [1] addresses T1, human neurturin (NRTN) (human, UniProt Q99748 96-197).
T1 sequence (looked up): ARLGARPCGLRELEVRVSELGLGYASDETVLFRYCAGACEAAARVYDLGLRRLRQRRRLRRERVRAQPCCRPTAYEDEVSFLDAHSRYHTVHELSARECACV
The experiment in a line: displacement of 0.9 nM [125I]PSPN from GFRA4a-transfected Neuro-2a cells. How it is done:
(§1) J. Milbrandt and E. M. Johnson, Jr.). […] was calculated using Cheng-Prusoff equation (McGonigle, et al., 1994).

Assay [2] deals with T2, rat GDNF (glial cell line-derived neurotrophic factor) (rat, UniProt Q07731 78-211).
T2 sequence (looked up): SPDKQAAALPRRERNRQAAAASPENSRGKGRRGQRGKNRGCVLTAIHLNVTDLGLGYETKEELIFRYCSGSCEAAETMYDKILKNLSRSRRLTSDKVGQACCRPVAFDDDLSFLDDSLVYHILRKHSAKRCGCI
The description is as above. The method, then: as §1

Assay [3] deals with B2. Kind of assay: displacement of [125I]PSPN from GFRA4a-transfected Neuro-2a cells; KD calculated using Cheng-Prusoff equation. How it is done:
as §1

In assay [4] the target is B1. The experiment in a line: displacement of 0.9 nM [125I]PSPN by unlabeled PSPN from GFRA4a-transfected Neuro-2a cells (endogenous Ret), 4 hrs on ice. How it is done: as §1

In the case of B1, the binding result in assay [1] is “no binding (tested: up to 200 nM)”; in assay [2], “no binding (tested: up to 300 nM)”. Also, in assay [3], the Kd was around 0.1 nM.
On to B2, for which the 50% inhibitory concentration (IC50) in assay [4] was found to be 1 nM.
